Consider 7 molecules from patent publication US20250163122A1, “COMPOSITIONS AND METHODS FOR TREATING AIRWAY MUCUS DYSFUNCTION” (BOARD OF REGENTS, THE UNIVERSITY OF TEXAS SYSTEM, priority 2022, published 2025).

Bridges are numbered along the chain shown (N, C = ends). [ ]: non-standard residue; d: D form. S5 = C=CCCC[C@](C)(N)C(=O)O

Data set [1] has as its system Muc5ac secretion from HAECs. Nature of the data set: Mucin (Muc5ac) secretion assay in HAECs. The class given is cell-based, human. As for the experimental part: Cell culture. […] Growth medium was replaced every two days. […] The apical medium was replaced after 48 h.
Mucin secretion assay in HAECs. […] In brief, for the 24 h peptide treatment, 20 μl of DMEM+/−100 μM peptides was added to the apical surface 24 h before stimulation. On the day of the assay, cells were washed 5 times with 100 μl DMEM for 1 h for each wash on the apical side. Apical supernatants were collected after every wash ([…]), then 100 μl of DMEM+/−100 μM peptides was added to the apical surface and HAECs incubated for 15 min before collecting the supernatant (baseline wash). HAECs were then incubated for an additional 15 min with 100 μl DMEM+/−100 μM ATP (Sigma) before collection of supernatants (experimental washes). Following sample collection, cells were lysed in 100 μl of lysis buffer (lysate) containing 50 mM Tris-HCl pH 7.2, 1 mM EDTA, 1 mM EGTA, 1% Triton-X (Sigma), protease inhibitor cOmplete mini EDTA-free and phosphatase inhibitor PhosSTOP (Roche, Germany). The protocol was adapted for 30 min peptide treatment as follows. After wash 5, 100 μl of DMEM+/−10 μM or 100 μM of peptides was added to the apical surface and HAECs incubated for 30 min (baseline wash). HAECs were then incubated for 30 min with 100 μl DMEM+/−100 μM ATP to collect experimental washes.
All samples were diluted 1:10 in PBS (washes and cell lysates) and 50 μl of each sample were vacuum-aspirated onto a 0.45 μm pore nitrocellulose membrane using the Bio-Dot® MicrofiltrationApparatus (Bio-Rad). […] All steps were performed at room temperature. Fluorescent signals were acquired using the Odyssey® Fc Imaging System (Li-Cor®, USA) and quantified using ImageJ (v.2.0.0; NIH, USA). Equal volumes of samples were loaded on the gels for control and peptide treatments. […] Stimulated secretion is therefore normalized to baseline secretion within individual filters to account for filter to filter heterogeneities.

The test system of data set [2] is mouse airway epithelial cells. The experiment in a line: Mucin secretion without secretagogue after peptide aerosol in mice with mucous metaplasia. The class given is in vivo. Here is the method: To investigate whether SP9 could have therapeutic benefit in vivo, SP9 conjugated to CPPs and fluorophores was introduced into mouse airways using a microsprayer inserted into the distal trachea under direct visualization with a laryngoscope. […] All subsequent studies of airway mucin secretion were therefore performed in the distal axial bronchus. […] This effect was not observed with the injection of buffer alone.
The peptide solution was injected into the airway under pressure to generate a droplet aerosol. A high concentration of peptides was used in these experiments in part because the solution is expected to be in contact with the airway epithelium only briefly and to mostly end up in the alveolar region.

The next data set concerns the target Syt2 (UniProt P29101 1-422, limits assumed). Nature of the data set: cell-based or functional assay.
Where [3] appears, read: 10 μM peptide, 30 min pre-incubation, metaplastic conditions.

Chain of Syt2 (P29101 whole entry): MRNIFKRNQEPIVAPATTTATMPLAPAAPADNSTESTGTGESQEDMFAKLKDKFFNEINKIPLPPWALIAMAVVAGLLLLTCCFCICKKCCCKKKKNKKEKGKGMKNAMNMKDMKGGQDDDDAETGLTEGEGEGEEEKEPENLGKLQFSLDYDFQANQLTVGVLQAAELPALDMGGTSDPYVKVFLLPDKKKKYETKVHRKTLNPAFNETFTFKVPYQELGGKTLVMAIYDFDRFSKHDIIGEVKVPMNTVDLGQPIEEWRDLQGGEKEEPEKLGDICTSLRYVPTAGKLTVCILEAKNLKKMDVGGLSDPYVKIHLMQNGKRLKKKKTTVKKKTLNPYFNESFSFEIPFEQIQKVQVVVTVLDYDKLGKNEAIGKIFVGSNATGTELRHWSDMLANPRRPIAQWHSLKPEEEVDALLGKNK

Turning to “H2N-GRKKRRQRRRPPQEE(S5)KDA(S5)IR(S5)LVM(S5)DEQ-(C/Cy3Mal)-amide (H-GRKKRRQRRRPPQEE[S5]KDA[S5]IR[S5]LVM[S5]DEQ-{C(Cy3 maleimide)-NH2}; staple 16-20, 23-27) [TAT-SP9-Cy3]”, in data set [1] (setting [3]), the “reduction of stimulated (IL-13+ATP) Muc5ac secretion” value is reported as 86%. In addition, in data set [1] (100 μM peptide for 24 h before stimulation, metaplastic HAECs), the “reduction of stimulated Muc5ac secretion” value was 83%. In addition, the “intracellular mucin content of cells that internalize the peptide” value in data set [2] (300 μM aerosolized, left axial bronchus, IL-13 mouse, PAFS) was “low intracellular mucin content”. Besides, in data set [2] (aerosolized 1 mM, left axial bronchus, IL-13 mice), the “mucin secretion after peptide aerosol without secretagogue” value is listed as “extensive apocrine mucin secretion”. In addition, the “mucin secretion of Cy3-labeled cells without a secretagogue (side-effect)” value in data set [2] (peptide introduced into airways of mice with mucous metaplasia) was “had secreted their mucin stores without stimulation”.
With “H2N-GRKKRRQRRRPPQEESKDAGIRTLVMLDEQ-(C/Cy3Mal)-amide (H-GRKKRRQRRRPPQEESKDAGIRTLVMLDEQ-{C(Cy3 maleimide)-NH2}) [TAT-P9-Cy3, non-stapled control peptide with TAT and Cy3, reference compound]”, in data set [1] (setting [3]), the “effect on stimulated secretion” value is reported as “no effect”.
Turning to “Ac-EE(S5)KDA(S5)IR(S5)LVM(S5)DEQ-(C/Cy3Mal)-amide (Ac-EE[S5]KDA[S5]IR[S5]LVM[S5]DEQC-NH2; staple 10-14, 3-7; also: Cy3 maleimide on C-terminal Cys) [SP9-Cy3]”, the “effect on stimulated secretion” value in data set [1] (setting [3]) is on record as “no effect”. Also, in data set [1] (100 μM peptide for 24 h before stimulation), the “effect on ATP-stimulated secretion” value is “no effect”.

B1: SP10 (peptide)
peptide: Ac-SKD[S5]GIR[S5]LV[S5]LDE[S5]GEQL-NH2
modifications: staple 11-15, 4-8
SMILES: CC[C@H](C)[C@@H]1NC(=O)CNC(=O)[C@@](C)(NC(=O)[C@H](CC(=O)O)NC(=O)[C@H](CCCCN)NC(=O)[C@H](CO)NC(C)=O)CCCC=CCCC[C@@](C)(C(=O)N[C@@H](CC(C)C)C(=O)N[C@H](C(=O)N[C@@]2(C)CCCC=CCCC[C@@](C)(C(=O)NCC(=O)N[C@@H](CCC(=O)O)C(=O)N[C@@H](CCC(N)=O)C(=O)N[C@@H](CC(C)C)C(N)=O)NC(=O)[C@H](CCC(=O)O)NC(=O)[C@H](CC(=O)O)NC(=O)[C@H](CC(C)C)NC2=O)C(C)C)NC(=O)[C@H](CCCNC(=N)N)NC1=O
B1: in the data set with Syt2, the “inhibition of Ca2+-independent fusion probability, single vesicle content mixing with airway epithelial SNAREs and Syt2” value was ≤ 40%; the “inhibition of Ca2+-triggered cumulative fusion probability, single vesicle content mixing with airway epithelial SNAREs and Syt2” value was ≤ 70%.

B2: SP9 (peptide)
peptide: Ac-EE[S5]KDA[S5]IR[S5]LVM[S5]DEQC-NH2
modifications: staple 10-14, 3-7
SMILES: CC[C@H](C)[C@H](NC(=O)[C@]1(C)CCCC=CCCC[C@](C)(NC(=O)[C@H](CCC(=O)O)NC(=O)[C@H](CCC(=O)O)NC(C)=O)C(=O)N[C@@H](CCCCN)C(=O)N[C@@H](CC(=O)O)C(=O)N[C@@H](C)C(=O)N1)C(=O)N[C@@H](CCCNC(=N)N)C(=O)N[C@@]1(C)CCCC=CCCC[C@@](C)(C(=O)N[C@@H](CC(=O)O)C(=O)N[C@@H](CCC(=O)O)C(=O)N[C@@H](CCC(N)=O)C(=O)N[C@@H](CS)C(N)=O)NC(=O)[C@H](CCSC)NC(=O)[C@H](C(C)C)NC(=O)[C@H](CC(C)C)NC1=O
As to B2, in the data set with Syt2, the “inhibition of Ca2+-independent fusion probability, single vesicle content mixing with airway epithelial SNAREs and Syt2” value is ≤ 40%; the “inhibition of Ca2+-triggered cumulative fusion probability, single vesicle content mixing with airway epithelial SNAREs and Syt2” value is ≤ 70%.

B3: SP1 (peptide)
peptide: Ac-SKD[S5]GIR[S5]LVMLDE[S5]GEQ[S5]DR-NH2
modifications: staple 15-19, 4-8
SMILES: CC[C@H](C)[C@@H]1NC(=O)CNC(=O)[C@@](C)(NC(=O)[C@H](CC(=O)O)NC(=O)[C@H](CCCCN)NC(=O)[C@H](CO)NC(C)=O)CCCC=CCCC[C@@](C)(C(=O)N[C@@H](CC(C)C)C(=O)N[C@H](C(=O)N[C@@H](CCSC)C(=O)N[C@@H](CC(C)C)C(=O)N[C@@H](CC(=O)O)C(=O)N[C@@H](CCC(=O)O)C(=O)N[C@@]2(C)CCCC=CCCC[C@@](C)(C(=O)N[C@@H](CC(=O)O)C(=O)N[C@@H](CCCNC(=N)N)C(N)=O)NC(=O)[C@H](CCC(N)=O)NC(=O)[C@H](CCC(=O)O)NC(=O)CNC2=O)C(C)C)NC(=O)[C@H](CCCNC(=N)N)NC1=O
In the case of B3, in the data set with Syt2, the “inhibition of Ca2+-independent fusion probability, single vesicle content mixing with airway epithelial SNAREs and Syt2” value was ≤ 40%; the “inhibition of Ca2+-triggered cumulative fusion probability, single vesicle content mixing with airway epithelial SNAREs and Syt2” value is ≤ 70%.

B4: SP4 (peptide)
peptide: Ac-SKDA[S5]IRT[S5]VM[S5]DEQ[S5]EQL-NH2
modifications: staple 12-16, 5-9
SMILES: CC[C@H](C)[C@@H]1NC(=O)[C@@](C)(NC(=O)[C@H](C)NC(=O)[C@H](CC(=O)O)NC(=O)[C@H](CCCCN)NC(=O)[C@H](CO)NC(C)=O)CCCC=CCCC[C@@](C)(C(=O)N[C@H](C(=O)N[C@@H](CCSC)C(=O)N[C@@]2(C)CCCC=CCCC[C@@](C)(C(=O)N[C@@H](CCC(=O)O)C(=O)N[C@@H](CCC(N)=O)C(=O)N[C@@H](CC(C)C)C(N)=O)NC(=O)[C@H](CCC(N)=O)NC(=O)[C@H](CCC(=O)O)NC(=O)[C@H](CC(=O)O)NC2=O)C(C)C)NC(=O)[C@H]([C@@H](C)O)NC(=O)[C@H](CCCNC(=N)N)NC1=O
Consider B4, for which, in the data set with Syt2, the “inhibition of Ca2+-independent fusion probability, single vesicle content mixing with airway epithelial SNAREs and Syt2” value is ≤ 40%; the “inhibition of Ca2+-triggered cumulative fusion probability, single vesicle content mixing with airway epithelial SNAREs and Syt2” value is ≤ 70%.
